This is an account of results in article PMC6256345 (2018).

The target in assay [1] is T1, modified Tau peptide 3.2b pS214 epitope (Homo sapiens, UniProt P10636, phosphoS214, N-acetyl, C-terminal Gly-(S)-2-benzhydrylpyrrolidine). Put plainly: FP competition.
For assay [2], the target named is T2, modified Tau peptide 3.2f pS214 epitope (Homo sapiens, UniProt P10636, SMILES …).
T2 chain: Ac-SRTP[pS]LP[dV]-{Pyrrolidinyl(2S-CHPh2)}
Description: FP competition.

The target of assay [3] is T3, modified Tau peptide 3.2c pS214 epitope (Homo sapiens, UniProt P10636, phosphoS214, N-acetyl, C-terminal L-Ala-(S)-2-benzhydrylpyrrolidine). Description: FP competition.
Assay [4] deals with T4, modified Tau peptide 3.2d pS214 epitope (Homo sapiens, UniProt P10636, phosphoS214, N-acetyl, C-terminal D-Ala-(S)-2-benzhydrylpyrrolidine). Description: FP competition.
Assay [5] deals with T5, modified Tau peptide 3.2a pS214 epitope (Homo sapiens, UniProt P10636, phosphoS214, N-acetyl, C-terminal L-Thr-(S)-2-benzhydrylpyrrolidine). Description: FP competition.
Assay [6] addresses T6, modified Tau peptide 3.2e pS214 epitope (Homo sapiens, UniProt P10636, SMILES …).
T6 chain: Ac-SRTP[pS]LPV-{Pyrrolidinyl(2S-CHPh2)}
Description: FP competition.

Assay [7] deals with T7, modified Tau peptide 4.2d-II pS214 epitope (Homo sapiens, UniProt P10636, also: regioisomer, substituent position not given here).
T7 chain: Ac-SRTP[pS]LPG-{(methoxyethoxy)‑substituted benzhydrylpyrrolidine}
Description: ITC.

The target in assay [8] is T1, modified Tau peptide 3.2b pS214 epitope. Description: ITC.
For assay [9], the target named is T2, modified Tau peptide 3.2f pS214 epitope. Description: ITC. A general note: ITC needs no label: the signal is the heat of the interaction.
In assay [10] the target is T3, modified Tau peptide 3.2c pS214 epitope. Put plainly: ITC.
Assay [11] deals with T8, modified Tau peptide 4.2f-I pS214 epitope (Homo sapiens, UniProt P10636, also: substituent position not given here).
T8 chain: Ac-SRTP[pS]LPG-{methoxy‑substituted benzhydrylpyrrolidine}
Description: ITC.

Assay [12] has as its target T4, modified Tau peptide 3.2d pS214 epitope. Description: ITC.
Assay [13] has as its target T5, modified Tau peptide 3.2a pS214 epitope. Description: ITC.

Non-standard residues stand in square brackets, D forms with d. *: point of attachment. Pyrrolidinyl(2S-CHPh2) = c1ccc(C(c2ccccc2)[C@@H]2CCCN2*)cc1; pS = N[C@@H](COP(=O)(O)O)C(=O)O

B1: 14-3-3ζ (protein)
chain: MDKNELVQKAKLAEQAERYDDMAACMKSVTEQGAELSNEERNLLSVAYKNVVGARRSSWRVVSSIEQKTEGAEKKQQMAREYREKIETELRDICNDVLSLLEKFLIPNASQAESKVFYLKMKGDYYRYLAEVAAGDDKKGIVDQSQQAYQEAFEISKKEMQPTHPIRLGLALNFSVFYYEILNSPEKACSLAKTAFDEAIAELDTLSEESYKDSTLIMQLLRDNLTLWTSDTQGDEAEAGEGGEN
Take B1: the IC50 (in general, the point on the concentration scale where inhibition reaches its midpoint) in [1] was determined as 5.9 µM; in assay [2], 7.6 µM; in assay [3] it was 5.3 µM; in assay [4], 6.2 µM; in [5], 8.1 µM; in assay [6] it was 6.2 µM. Also, the Kd (in general, a measure of binding affinity in units of concentration) in [7] came to 20.6 µM; in assay [8] it was 5.6 µM; in assay [9], 3.4 µM; in assay [10] it was 3.3 µM; in assay [11], 4.7 µM; in assay [12], 3 µM. For the same molecule, in assay [13], binding was put at a Kd of 5.4 µM.
